Biological target: HA stem domain construct mutant M6 (A/California/05/2009 (H1N1) HA stem fused to foldon, refolded trimer) (Influenza A virus A/California/05/2009 (H1N1))

“antibody C179 (Mouse IgG) (TAKAR Bio INC.)” gave a fold better recognition than commercial full-length HA of 30 fold.
